Source: article PMC5685557 (Structure (London, England : 1993), 2017)
Where a chain is given by its changes, count along the chain named. Names and notes keep the numbering of the source. Values joined by “and” are separate entries in the source; they are usually repeats but may differ in a detail not shown here. Equal entries are not always repeated.

B1: myocilin construct CC_(33-111) (domain or fragment, human, UniProt Q99972 33-111, looked up)
chain: RTAQLRKANDQSGRCQYTFSVASPNESSCPEQSQAMSVIHNLQRDSSTQRLDLEATKARLSSLESLLHQLTLDQAARPQ
B2: myocilin N-terminal domain construct NTD_(33-226), wild type (domain or fragment, human, UniProt Q99972 33-226, looked up)
chain: RTAQLRKANDQSGRCQYTFSVASPNESSCPEQSQAMSVIHNLQRDSSTQRLDLEATKARLSSLESLLHQLTLDQAARPQETQEGLQRELGTLRRERDQLETQTRELETAYSNLLRDKSVLEEEKKRLRQENENLARRLESSSQEVARLRRGQCPQTRDTARAVPPGSREVSTWNLDTLAFQELKSELTEVPASR
B3: NTD_(33-226) (C47S/C61S/C185S) (domain or fragment, human, UniProt Q99972 33-226, looked up)
chain: B2 chain with C15S, C29S, C153S
B4: myocilin coiled-coil construct CC_(69-184) (domain or fragment, human, UniProt Q99972 69-184, looked up)
chain: SVIHNLQRDSSTQRLDLEATKARLSSLESLLHQLTLDQAARPQETQEGLQRELGTLRRERDQLETQTRELETAYSNLLRDKSVLEEEKKRLRQENENLARRLESSSQEVARLRRGQ
B5: mouse myocilin leucine zipper construct mLZ_(93-171) (domain or fragment, UniProt O70624 93-171, looked up)
chain: VTGTQEAQEGLQGQLGALRRERDQLETQTRDLEAAYNNLLRDKSALEEEKRQLEQENEDLARRLESSSEEVTRLRRGQC
B6: myocilin coiled-coil construct CC_(112-185) (domain or fragment, human, UniProt Q99972 112-185, looked up)
chain: ETQEGLQRELGTLRRERDQLETQTRELETAYSNLLRDKSVLEEEKKRLRQENENLARRLESSSQEVARLRRGQC
B7: myocilin coiled-coil construct CC_(69-185) (domain or fragment, human, UniProt Q99972 69-185, looked up)
chain: SVIHNLQRDSSTQRLDLEATKARLSSLESLLHQLTLDQAARPQETQEGLQRELGTLRRERDQLETQTRELETAYSNLLRDKSVLEEEKKRLRQENENLARRLESSSQEVARLRRGQC
B8: myocilin coiled-coil construct CC_(60-185) (domain or fragment, human, UniProt Q99972 60-185, looked up)
chain: SCPEQSQAMSVIHNLQRDSSTQRLDLEATKARLSSLESLLHQLTLDQAARPQETQEGLQRELGTLRRERDQLETQTRELETAYSNLLRDKSVLEEEKKRLRQENENLARRLESSSQEVARLRRGQC

Tests used:
cross-linking = target: the molecule itself; experiment: cross-linking
SEC-SAXS = target: the molecule itself; experiment: SEC-SAXS
SEC [1] = target: the molecule itself; experiment: SEC
non-reducing SDS-PAGE = target: the molecule itself; experiment: non-reducing SDS-PAGE
SEC [2] = target: the molecule itself; experiment: SEC; remark: listed apart in the source

Protein	stoichiometry N (cross-linking)	stoichiometry N (SEC-SAXS)	stoichiometry N (SEC [1])	stoichiometry N (non-reducing SDS-PAGE)	binding result (SEC [2])
B1	2	2.8	4		
B2	2 and 4			~8	
B3					binds
B4			4		
B5		2.2			
B6		2.4	2		
B7	4	3.6		2	
B8		4.9			
